The series can be described thus: self-splicing fitness, log relative to wild type (ln ratio); higher = more splicing; Tetrahymena group I intron in knt gene, E. coli kanamycin selection, DiMSum; sequences stand for … in CUCUCU…GGAGGGAAAAGUUAUCAGGCAUGCACCUGGUAGCUAGUCUUUAAACCAAUAGAUUGCAUCGGUUUAAAAGGCAAGACCGUCAAAUUGCGGGAAAGGGGUCAACAGCCGUUCAGUACCAAGUCUCAGGGGAAACUUUGAGAUGGCCUUGCAAAGGGUAUGGUAAUAAGCUGACGGACAUGGUCCUAACCACGCAGCCAAGUCCUAAGUCAACAGAUCUUCUGUUGAUAUGGAUGCAGUUCACAGACUAAAUGUCGGUCGGGGAAGAUGUAUUCUUCUCAUAAGAUAUAGUCGGACCUCUCCUUAAUGGGAGCUAGCGGAUGAAGUGAUGCAACACUGGAGCCGCUGGGAACUAAUUUGUAUGCGAAAGUAUAUUGAUUAGUUUUGGAGUACUCGUGGUCG
In short, it runs like this:
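A randomised library covering all eight P1ex-region intron nucleotides was built with the intron in the knt kanamycin-resistance gene on pET-22b(+) and held in E. coli BL21(DE3). Cells were grown overnight at 37°C or 30°C on LB agar, with or without 25 μg/mL kanamycin, plus 100 μg/mL carbenicillin, 50 μM IPTG and 0.2% rhamnose, and pooled colonies were amplicon-sequenced on an Illumina HiSeq 2500. DiMSum fitness is the error-weighted combination of wild-type-normalised replicate fold changes, kanamycin versus none.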

± gives the uncertainty stated by the source.

In the case of GAGAAGCAAUAUUACGUUUA, the “self-splicing fitness (ln)” value was -2.13 ± 0.12 (30 °C) and -0.99 ± 0.12 (37 °C).

As to UUGAAGCAAUAUUACGAGGC, the “self-splicing fitness (ln)” value is -3.28 ± 0.39 (30 °C) and -1.84 ± 0.47 (37 °C).

As for UCGUAGCAAUAUUACGUCGU, the “self-splicing fitness (ln)” value is -4.26 ± 0.32 (30 °C) and -1.25 ± 0.18 (37 °C).

Regarding GACGAGCAAUAUUACGAUCC, the “self-splicing fitness (ln)” value is -0.986 ± 0.21 (30 °C) and -0.739 ± 0.4 (37 °C).

GGCCAGCAAUAUUACGCCCC: the “self-splicing fitness (ln)” value is, setting by setting: (30 °C) -1.65 ± 0.17; (37 °C) -0.851 ± 0.26.

UUGAAGCAAUAUUACGGCCA: the “self-splicing fitness (ln)” value reads like this: (30 °C) 0.0822 ± 0.12; (37 °C) -0.046 ± 0.13.

UUAAAGCAAUAUUACGAUUG: the “self-splicing fitness (ln)” value runs as follows: (30 °C) -2.03 ± 0.11; (37 °C) -0.734 ± 0.11.

In the case of GGGUAGCAAUAUUACGACGU, the “self-splicing fitness (ln)” value is -0.726 ± 0.12 (30 °C) and -0.0177 ± 0.14 (37 °C).

Consider CAGCAGCAAUAUUACGCCCA, for which the “self-splicing fitness (ln)” value is -1.98 ± 0.14 (30 °C) and -0.0298 ± 0.12 (37 °C).

As for GUCUAGCAAUAUUACGAUGG, the “self-splicing fitness (ln)” value runs as follows: (30 °C) -3.48 ± 0.17; (37 °C) -0.823 ± 0.17.

UUAAAGCAAUAUUACGUUAC: the “self-splicing fitness (ln)” value was -3.66 ± 0.19 (30 °C) and -0.9 ± 0.2 (37 °C).

Turning to AAGAAGCAAUAUUACGGCUG, the “self-splicing fitness (ln)” value (30 °C) was -0.496 ± 0.077 and the “self-splicing fitness (ln)” value (37 °C) was -0.25 ± 0.12.

In the case of CCCUAGCAAUAUUACGUGGU, the “self-splicing fitness (ln)” value was -4.61 ± 0.2 (30 °C) and -2.27 ± 0.14 (37 °C).

Consider CAAGAGCAAUAUUACGUUUU, for which the “self-splicing fitness (ln)” value runs as follows: (30 °C) -3.35 ± 0.16; (37 °C) -2.29 ± 0.15.

As for CCGUAGCAAUAUUACGGAUC, the “self-splicing fitness (ln)” value reads like this: (30 °C) -3.86 ± 0.2; (37 °C) -2.03 ± 0.19.

Turning to AUGUAGCAAUAUUACGCCUG, the “self-splicing fitness (ln)” value reads like this: (30 °C) -1.33 ± 0.23; (37 °C) -0.722 ± 0.21.

As to GCAAAGCAAUAUUACGUGAU, the “self-splicing fitness (ln)” value (30 °C) was -0.863 ± 0.053 and the “self-splicing fitness (ln)” value (37 °C) is -0.973 ± 0.075.

With GCGAAGCAAUAUUACGUCGA, the “self-splicing fitness (ln)” value runs as follows: (30 °C) -2.01 ± 0.1; (37 °C) -0.792 ± 0.094.

On to GGUUAGCAAUAUUACGUUAG, for which the “self-splicing fitness (ln)” value is, setting by setting: (30 °C) -2.34 ± 0.13; (37 °C) -1.69 ± 0.19.

As for CAAAAGCAAUAUUACGAUGU, the “self-splicing fitness (ln)” value runs as follows: (30 °C) -2.32 ± 0.075; (37 °C) -1.66 ± 0.11.

Consider CGUUAGCAAUAUUACGCGAA, for which the “self-splicing fitness (ln)” value was -3.36 ± 0.41 (30 °C) and -3.1 ± 0.43 (37 °C).

Take UCGAAGCAAUAUUACGAUAC: under “30 °C”, the “self-splicing fitness (ln)” value was -3.33 ± 0.25.

With CUGCAGCAAUAUUACGACAG, the “self-splicing fitness (ln)” value (30 °C) was -2.43 ± 0.13 and the “self-splicing fitness (ln)” value (37 °C) is -1.56 ± 0.18.

Take CUGAAGCAAUAUUACGGGAG: the “self-splicing fitness (ln)” value was -0.441 ± 0.067 (30 °C) and -0.168 ± 0.078 (37 °C).

For GGUCAGCAAUAUUACGCAUU, the “self-splicing fitness (ln)” value (30 °C) is 0.00502 ± 0.059 and the “self-splicing fitness (ln)” value (37 °C) turned out to be 0.0322 ± 0.069.

On to CUGUAGCAAUAUUACGAACC, for which, where the note is “30 °C”, the “self-splicing fitness (ln)” value was -2.02 ± 0.47.

Regarding CUCUAGCAAUAUUACGGAGA, the “self-splicing fitness (ln)” value was -1.93 ± 0.47 (30 °C) and -0.951 ± 0.27 (37 °C).

Consider UUGAAGCAAUAUUACGCAGC, for which the “self-splicing fitness (ln)” value runs as follows: (30 °C) -3.74 ± 0.3; (37 °C) -1.05 ± 0.34.

Turning to AAGGAGCAAUAUUACGAGAG, the “self-splicing fitness (ln)” value was -1.62 ± 0.17 (30 °C) and -2.58 ± 0.34 (37 °C).

As to GUCAAGCAAUAUUACGUGUC, the “self-splicing fitness (ln)” value is -2.72 ± 0.13 (30 °C) and -1.46 ± 0.12 (37 °C).

Consider AUAUAGCAAUAUUACGUGGG, for which the “self-splicing fitness (ln)” value is, setting by setting: (30 °C) -3.53 ± 0.28; (37 °C) -3.28 ± 0.33.

Regarding CGUGAGCAAUAUUACGAGAU, the “self-splicing fitness (ln)” value was -3.4 ± 0.26 (30 °C) and -1.57 ± 0.24 (37 °C).

CGUUAGCAAUAUUACGGUCU: the “self-splicing fitness (ln)” value is -1.56 ± 0.18 (30 °C) and -1.22 ± 0.16 (37 °C).

On to GCUGAGCAAUAUUACGGAAA, for which the “self-splicing fitness (ln)” value was -2.86 ± 0.25 (30 °C) and -2.63 ± 0.32 (37 °C).

With CGGCAGCAAUAUUACGGUUA, the “self-splicing fitness (ln)” value is -0.164 ± 0.067 (30 °C) and -0.476 ± 0.059 (37 °C).

In the case of AGAGAGCAAUAUUACGCGUC, the “self-splicing fitness (ln)” value is -2.64 ± 0.36 (30 °C) and -0.28 ± 0.28 (37 °C).

For the sequence ACAAAGCAAUAUUACGUGCU, the “self-splicing fitness (ln)” value reads like this: (30 °C) -0.981 ± 0.069; (37 °C) -0.486 ± 0.082.

Consider GAUAAGCAAUAUUACGUCGU, for which the “self-splicing fitness (ln)” value is -1.68 ± 0.072 (30 °C) and -0.373 ± 0.086 (37 °C).

On to CACCAGCAAUAUUACGUUGC, for which the “self-splicing fitness (ln)” value was -3.93 ± 0.17 (30 °C) and -3.5 ± 0.24 (37 °C).

In the case of GGGCAGCAAUAUUACGGGUU, the “self-splicing fitness (ln)” value (30 °C) was -1.58 ± 0.12 and the “self-splicing fitness (ln)” value (37 °C) was -0.384 ± 0.12.

Consider GUGUAGCAAUAUUACGACGU, for which the “self-splicing fitness (ln)” value by setting is: (30 °C) 0.117 ± 0.095; (37 °C) 0.9 ± 0.12.

For GGGAAGCAAUAUUACGCGUG, the “self-splicing fitness (ln)” value reads like this: (30 °C) -1.02 ± 0.076; (37 °C) -0.978 ± 0.096.

For CAGUAGCAAUAUUACGCUCG, the “self-splicing fitness (ln)” value (30 °C) was -0.354 ± 0.12 and the “self-splicing fitness (ln)” value (37 °C) was -0.439 ± 0.17.

For UACGAGCAAUAUUACGAUAU, the “self-splicing fitness (ln)” value was -2.39 ± 0.26 (30 °C) and -3.25 ± 0.37 (37 °C).

For GUAAAGCAAUAUUACGCUUA, the “self-splicing fitness (ln)” value runs as follows: (30 °C) -1.27 ± 0.11; (37 °C) -0.77 ± 0.14.

In the case of UGUAAGCAAUAUUACGCGUC, the “self-splicing fitness (ln)” value runs as follows: (30 °C) -3.31 ± 0.25; (37 °C) -2.65 ± 0.32.

For the sequence CGUUAGCAAUAUUACGUUCA, the “self-splicing fitness (ln)” value by setting is: (30 °C) -0.69 ± 0.078; (37 °C) -0.192 ± 0.083.

Take ACUUAGCAAUAUUACGUGAU: the “self-splicing fitness (ln)” value is, setting by setting: (30 °C) -2.53 ± 0.1; (37 °C) -1.37 ± 0.1.

In the case of CCGCAGCAAUAUUACGUCCG, the “self-splicing fitness (ln)” value was -0.393 ± 0.084 (30 °C) and -0.499 ± 0.09 (37 °C).

With UACAAGCAAUAUUACGUGUA, the “self-splicing fitness (ln)” value runs as follows: (30 °C) -3.33 ± 0.15; (37 °C) -2.69 ± 0.14.

Regarding CAUAAGCAAUAUUACGGACA, the “self-splicing fitness (ln)” value (30 °C) was -3.09 ± 0.25 and the “self-splicing fitness (ln)” value (37 °C) is -2.11 ± 0.19.

For AUCUAGCAAUAUUACGACGC, the “self-splicing fitness (ln)” value (30 °C) was -0.785 ± 0.089 and the “self-splicing fitness (ln)” value (37 °C) is -0.226 ± 0.13.

With GCGCAGCAAUAUUACGCCAC, where the note is “37 °C”, the “self-splicing fitness (ln)” value was -1.17 ± 0.36.

On to GCGGAGCAAUAUUACGUAGC, for which the “self-splicing fitness (ln)” value is -1.91 ± 0.28 (30 °C) and -2.38 ± 0.41 (37 °C).

Take AGGGAGCAAUAUUACGCACG: the “self-splicing fitness (ln)” value (30 °C) is -2.17 ± 0.49 and the “self-splicing fitness (ln)” value (37 °C) is -0.794 ± 0.39.

As for AUCAAGCAAUAUUACGACUU, the “self-splicing fitness (ln)” value runs as follows: (30 °C) -0.501 ± 0.049; (37 °C) 0.297 ± 0.064.

Consider AAGUAGCAAUAUUACGAGGA, for which the “self-splicing fitness (ln)” value was -2.04 ± 0.32 (30 °C) and -2.12 ± 0.34 (37 °C).

Turning to AUCGAGCAAUAUUACGUGUU, the “self-splicing fitness (ln)” value reads like this: (30 °C) -2.9 ± 0.22; (37 °C) -2.42 ± 0.29.

In the case of UCCAAGCAAUAUUACGCAUA, the “self-splicing fitness (ln)” value runs as follows: (30 °C) -1.07 ± 0.096; (37 °C) -0.213 ± 0.087.

On to CAUAAGCAAUAUUACGGGAU, for which the “self-splicing fitness (ln)” value reads like this: (30 °C) -3.51 ± 0.16; (37 °C) -2.3 ± 0.2.
